The target in this assay is T1, Met (UniProt P08581 25-932, limits assumed).
T1 construct: Met as the partner of the printed Kd; The assay and the construct are not described; also called HGFR; hepatocyte growth factor receptor
The assay is described as follows: not stated (given as a property of the antibody in Material and Methods).

T1 sequence (P08581 25-932 limits assumed): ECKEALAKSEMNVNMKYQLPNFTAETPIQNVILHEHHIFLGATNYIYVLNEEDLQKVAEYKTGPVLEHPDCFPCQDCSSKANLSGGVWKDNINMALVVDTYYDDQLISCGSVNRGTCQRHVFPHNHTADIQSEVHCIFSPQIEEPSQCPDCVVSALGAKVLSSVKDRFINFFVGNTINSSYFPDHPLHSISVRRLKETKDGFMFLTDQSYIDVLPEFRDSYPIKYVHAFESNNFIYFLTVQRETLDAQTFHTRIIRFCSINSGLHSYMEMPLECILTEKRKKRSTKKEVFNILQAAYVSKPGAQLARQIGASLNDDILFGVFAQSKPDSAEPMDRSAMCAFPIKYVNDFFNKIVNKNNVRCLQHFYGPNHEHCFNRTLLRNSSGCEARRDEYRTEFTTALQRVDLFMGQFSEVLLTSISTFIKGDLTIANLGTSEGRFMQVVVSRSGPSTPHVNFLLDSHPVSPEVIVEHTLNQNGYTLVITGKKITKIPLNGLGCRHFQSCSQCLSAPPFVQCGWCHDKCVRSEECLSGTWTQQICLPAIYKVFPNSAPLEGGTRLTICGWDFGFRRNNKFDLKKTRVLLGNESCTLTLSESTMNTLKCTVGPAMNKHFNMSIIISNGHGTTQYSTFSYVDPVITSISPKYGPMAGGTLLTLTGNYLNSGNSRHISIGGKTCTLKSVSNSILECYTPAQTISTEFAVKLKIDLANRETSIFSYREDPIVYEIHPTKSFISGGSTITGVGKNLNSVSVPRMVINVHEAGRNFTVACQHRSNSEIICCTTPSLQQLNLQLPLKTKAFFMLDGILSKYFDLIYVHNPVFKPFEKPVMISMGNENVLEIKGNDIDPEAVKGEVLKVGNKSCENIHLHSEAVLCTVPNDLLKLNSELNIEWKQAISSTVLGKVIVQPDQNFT

B1: murine IgG2a MAb DN30 (antibody, V domains shown)
VH: QVQLQQPGTELVKPGASVKLSCKASGYTFTSYWIHWVKQRPGQGLEWIGEINPSSGRTNYNEKFKNKVTVTVDKSSTTAYMQLSNLTSEDSAVYYCASRGYWGQGTTLTVSS
VL: DIVLTQSPASLAVSLGQRATISCKASQSVDYDGGSYMSWFQQRPGQPPKLLISAASNLESGIPARFSGSGSGTDFTLNIHPVEEEDVATYYCQQSYEDPLTFGAGTKLELKR
notes: Murine IgG2a, intact MAb; also called anti-Met monoclonal antibody produced by the hybridoma cell line ICLC PD 05006
Usually Kd stands for the concentration at which binding is half-saturated. Read a low Kd as tighter binding. Turning to B1, binding was put at a Kd of 2.64 nM.

The values above are taken from patent US20090297439A1 (METHERESIS TRANSLATIONAL RESEARCH, published 2009).
